From the DeepSol protein solubility set

experiment: soluble on expression in E. coli; label from the status in PepcDB or PDB records

Row | Sequence | soluble on expression in E. coli
1 | MSKTTQSRETTLAGHPVEYEVRRSEDATEPRIDIDIRGVTVVLPAESEESPEALLSENLNWVLETKRTYERHRERAPERRFEPGAAFPYLGDDHEIVVEPRPAHGVGDGEIRLRQSTVDQSSLKRVLENFYRSRAREHLTDRTDALADSMNHTYDRIELRNQRTRWGSCSTNGVLSFNWRLVMAPPDVIDYVVVHELAHLRESGHNDRFWRLVEMEIPEYRELSDWLDTNSVDLIFSKDDLLEHHHHHH | soluble
2 | MANANPFARIADRYDGTPPRLRPPLVTQAVGEVIPFVDTAGCFVEAYTPRRVAVRLDNEERLHNHLGGLHAAALALLAETATGLVVALNVPDGSSPLLRTMDISFENFARDAVQAEATLTDAETSQVRSRPLGQIAVDVALTAPDDDTTLVAGTLTWAWVPEARLVDEGERLEHHHHHH | not soluble
3 | SHMQLKFAECLEKKVDMSKVNLEVIKPWITKRVTEILGFEDDVVIEFIFNQLEVKNPDSKMMQINLTGFLNGKNAREFMGELWPLLLSAQENIAGIPSAFLELKKEEIKQR | soluble
4 | MGSDKIHHHHHHMRQVLQKDKRDVQLSKALSYLLRHTAVKEKLTIDSNGYTPLKELLSHNRLKTHKCTVDDIHRIVKENDKQRFHIKTLGADEEWICATQGHSIKSIQPSDEVLVPITEASQLPQELIHGTNLQSVIKIIESGAISPMSRNHVHLSPGMLHAKGVISGMRSSSNVYIFIDCHSPLFFQTLKMFRSLNNVYLSSSIPVELIQKVVVKGNLKDEEKLDTLRRILHERNIPLEKI | not soluble
5 | MTYETISVRMNRSDRNIRWGFSVRQQADGLIIDRVEAESLSDKAGVKHNDKVDQINGRSTRGLDAASANRLIDDSFNEVRLSLQRFVTSHTTLPWTLNEKDNKMVVEEMKPGFGTGFGSGFGSSNFVNSSFNQNQNNFGSHFGTGSGVNQRNITNTNTSSSNHQSSTFHSSSHQSSGNYGSGGFSPSSHHNIPIRHSPAPPFTTSNSSYNNIKKSTDNTILPGSANYNPNNSSNYNSVPTGFGASSGGYGGSGGFKGHSNGSAIPAQAPPTSYSYNNGATSQPYGAGSGGTPLNQMTFINTSPAPGANGAYGAQCGLSPSKVFYHSPSGRSRNELSPGAAVHHLQYNSPMNLYSSEATAEQLYQQTGAVPEGPVPHDKSPAYLTSETRKLIEEEARGRFQRGKSPSSQSSCFKRISHAVGADH | not soluble
6 | MISVFDMFKVGIGPSSSHTVGPMKAGKQFIDDLIKRNQFEQTTEIHVDVYGSLSMTGRGHSTDIAIIMGLAGYLPHNVDIDMISGFIEKVKQTALLPINVGQKIVKFDFENNLIFHRTFLKLHENGMTITALDENRTELYRQTYYSIGGGFIVDEAHFGK | not soluble
7 | MKEQNESFVVDFVGGAVGHRFRSGEGRGQALPKAAGFTKGRTPKIVDATAGLGRDAFLLASLGAEVTLIERSPGMHAHLADGISRALEAGGAYAEAASRMTLLQGDSRQLLKELSPEVVVIDPMHPPRHNTALVKKEMRVLRELVGSDPDQVELMEVALAHATKRVVLKWPLRADPMPGIRKPSHQIIGKNTRYDVFMIFGNSLDQQELEHHHHHH | soluble
8 | MTVQIPKLLFLHGFLQNGKVFSEKSSGIRKLLKKANVQCDYIDAPVLLEKKDLPFEMDDEKWQATLDADVNRAWFYHSEISHELDISEGLKSVVDHIKANGPYDGIVGFSQGAALSSIITNKISELVPDHPQFKVSVVISGYSFTEPDPEHPGELRITEKFRDSFAVKPDMKTKMIFIYGASDQAVPSVRSKYLYDIYLKAQNGNKEKVLAYEHPGGHMVPNKKDIIRPIVEQITSSLQEASE | soluble
9 | MGSCMKWDYGEMEDFSVSASGLFITNEGNFQYSNATLSYYDPATCEVENEVFYRANGFKLGDVAQSMVIRDGIGWIVVNNSHVIFAIDINTFKEVGRITGFTSPRYIHFLSDEKAYVTQIWDYRIFIINPKTYEITGYIECPDMDMESGSTEQMVQYGKYVYVNCWSYQNRILKIDTETDKVVDELTIGIQPTSLVMDKYNKMWTITDGGYEGSPYGYEAPSLYRIDAETFTVEKQFKFKLGDWPSEVQLNGTRDTLYWINNDIWRMPVEADRVPVRPFLEFRDTKYYGLTVNPNNGEVYVADAIDYQQQGIVYRYSPQGKLIDEFYVGIIPGAFCWKLEHHHHHH | not soluble
10 | KMLDEKFYSKLLGEELDLIICLPPDFSPLYKYPLFIVQDGKDYFQFGKLARHSEELAVNEQIQKAIFIGIPYKTVMDRREKYHPDGEQNEAYIRFLAFELVPYLEERFPSFQMPTSRFL | not soluble
11 | NGMDEEQRQKRRRIEVALIEYRETLEEQGMKNPEEIERKVEINRKRLEVDYGLS | soluble
12 | GPGSMVACTRLRRTQKVAKQKTETASNSHPRTSFLRRGRSTDCDIGALHVAATRVTLSVSHYATLLEGSVICVCFGFRLAAAAATNQLASSRLYRVPFAPLTSGLTNEKVLLRWSVAMSRKDAERKLTEDDCLTSSQQYDPQLIFYVPLRRKGYQAIDASAFVRCGGLRVVDISGNRLSTLSGLESVAPQLTFLNAAENSLHDIGALVTCAALERCMLEGNKLASVDSLQPLVSLPCLAELVLQRHVPLDDAAIGSGSPEQSSDKLLLLDNPVCRDAVAYREHFLAKMSHVRWVDGVSTYLRASSLAESTTTESHDAKENSTKAIVDAAIRSFQSIRVQMTATVSEETTLRHQLERAADRCKPSTVTVAARTP | not soluble
13 | MGSDKIHHHHHHMSSEEDYFDELEYDLADEVNEEKEDIQTKKLTTVNCQTEKFNPFEILPESIELFRTLALISPDRLSLSETAQILPKIVDLKRILQQQEIDFIKLLPFFNEIIPLIKSNIKLMHNFLISLYSRRFPELSSLIPSPLQYSKVISILENENYSKNESDELFFHLENKAKLTREQILVLTMSMKTSFKNKEPLDIKTRTQILEANSILENLWKLQEDIGQYIASKISIIAPNVCFLVGPEIAAQLIAHAGGVLEFSRIPSCNIASIGKNKHLSHELHTLESGVRQEGYLFASDMIQKFPVSVHKQMLRMLCAKVSLAARVDAGQKNGDRNTVLAHKWKAELSKKARKLSEAPSISETKALPIPEDQPKKKRAGRKFRKYKEKFRLSHVRQLQNRMEFGKQEQTVLDSYGEEVGLGMSNTSLQQAVGATSGSRRSAGNQAKLTKVMKHRISEANQQADEFLISLGHNTEQPNLSPEMVQMHKKQHTNPEEETNWFSGHG | not soluble
14 | TPNKEDYLKCLYELGTRHNKITNKEIAQLMQVSPPAVTEMMKKLLAEELLIKDKKAGYLLTDLGLKLVSDLYRKHRLIEVFLVHHLGYTTEEIHEEAEVLEHTVSDHFVERLDQLLDYPKACPHGGTIPAKGELLVEKHKLTLEEAKEKGDYILARVHDNFDLLTYLERNGLQVGKTIRFLGYDDFSHLYSLEVDGQEIQLAQPIAQQIYVEKI | soluble
15 | NFMLNQPHSVSESPGKTVTISCTRSSGNIDSNYVQWYQQRPGSAPITVIYEDNQRPSGVPDRFAGSIDRSSNSASLTISGLKTEDEADYYCQSYDARNVVFGGGTRLTVLG | soluble
16 | MGSDKIHHHHHHMEALRRRIETQVMSLTGLALGQLDLESPKGDPGLFGPHSISWRVHGDFPSMLVGGISALMLQLLHPLALAGVWDHSNFREDLLGRLRRTSQFISGTTFGATGDAEWLIDKVRTIHLQVTGTAPDGRPYAASDPDLLTWVHVAEVSRFLAAHLRYRNPRLPRAEQDAYYNEIALIAERLGARDVPRSCQQVEDYLQHIRPQLHCDARSHEVIRILLDAPAPSRLAQPVGKLMLHAGIDLLPGWAQALLGLQHGPLQQRLIRLGLRRTAPVLRWAMRDGSAHRAKRRMGID | not soluble
17 | MSKAKAPINTDELKQKYGRVYEIRIEGLEYENGEEAEFVFYFTRPKVSDISRFTKELNSKPDMAMKNLTFSCIVPEQEEELRQAAEEFPGLTFNTASRLMEIVGASAATSLKKL | soluble
18 | STKLLYLKPIQTGFPSDSDSRFVFSKLDSLSLRRQIPISISNSVLHSSLPAAKSLGLNVEVSESGMCSLNFRDEKTVTGAPELLCKTLYAWEAAISPHLAAERENATVEDSVVLQMIEKCLKEEMECGVKSEKSDLLCLVETAGGVASPGPSGTLQCDLYRPFRLPGILVGDGRLGGISGTIAAYESLKLRGYDIAAVVFEDHGLVNEVPLTSYLRNK | soluble
19 | MARIRVQFICQNCGTVHSRWAGKCNSCGEWNSLIEENANSGIGTGPKQNVHKGRVVALTSLSGNIEDAPRIHSGIAELDRVTGGGFVRGSVLLVGGDPGIGKSTLLTQTAAALSRKGHHVIYVSGEEAVAQICLRAQRLDAANTKVKLAAETNVEDILATLSEHKNLDMVIIDSIQTLWSDAADSAPGTVTQVRISAQAMIRFAKKTGAAVVLVGHVTKEGQIAGPRVVEHMVDAVLYFEGEGGHHYRILRTVKNRFGPTDEIGVFEMSDKGLREVINPSELFLGERNEKAPGAAVFAGMEGTRPILVEIQALVAPSSLGTPRRAVVGWDGNRLSMILAVLEAHCGVRFGQHDVYLNVAGGYRISEPAADLAVAAALVSSLTNIPLPTEYVYFGEISLSGAIRAVSHSAQRINEAQKLGFQGSVQPTTTTKMIKLPTFQQKTFSELSELIAALATGK | not soluble
20 | MEIKMAKDYGFCFGVKRAIQIAEKNQNSLIFGSLIHNAKEINRLEKNFNVKIEEDPKKIPKNKSVIIRTHGIPKQDLEYLKNKGVKITDATCPYVIKPQQIVESMSKEGYQIVLFGDINHPEVKGVISYATNQALVVNSLEELQEKKLQRKVALVSQTTKQTPKLLQIASYLVERCTEVRIFNTICNATSYNQKAALDLSKEVDIMIVVGGKTSSNTKQLLSIAKQHCKDSYLVEDENELELAWFKDKKLCGITAGASTPDWIIENVKQKISTILEHHHHHH | not soluble
21 | MVHTADNAWRAHIPLMYREDFLCSSGVARWNEEFPRHCVVSQHDRHKTKSVLVILFLIAMRNIKNNRGTFTRIKDRLSSALKSPASLFRRSPEISLREDILSWKKSPHSLAASEYGGSDLLVQFLKQQTSDDYVDFWLESGEYRWTRTKPGRKRDIEAQRIYDKFVYGECPRKIAHLEKMCFVSRQGPTGRDVFICAQAYVGTNFPKDSYKKFLQDPIYLNLLKTVSSGATQLNE | not soluble
22 | MNYLEGVGSKKGGGGIASESQFNLQRRKEVESLLSKGENVPYTFQDEKDDQVRSNPYIYKNHSGKLVCKLCNTMHMSWSSVERHLGGKKHGLNVLRRGISIEKSSLGREGQTTHDFRQQQKIIEAKQSLKNNGTIPVCKIATVKNPKNGSVGLAIQVNYSSEVKENSVDSDDKAKVPPLIRIVSGLELSDTKQKGKKFLVIAYEPFENIAIELPPNEILFSENNDMDNNNDGVDELNKKCTFWDAISKLYYVQFFFKQAEQEQADV | soluble
23 | MGSDKIHHHHHHMSAHEMNHATPRLPAPLFVTGTDTGVGKTVVSLLLMRALFRRGMVPFYAKPMQTGCRDPYDTDSDAAFVYRHVPELAERDPAEAVGWCFRAPKAPLHAARDERNGVETEDLMRRLAILRATHACLVLEGAGGLMVPFTADALCVDCIRAADARPVLVARDGLGTVNHTLLSVEAMTRRGVTPAGIVFVASGKRPTPSDLVHDNMEAVAMLSGISVSGIVPPILDFHAPPEAALTVADAVIDAALGL | not soluble
